Results as given in the nanobody polyreactivity screen of Harvey et al. (2022).

Assay: yeast display, Sf9 membrane polyspecificity reagent, FACS + sequencing; frameworks hold sequencing errors
Procedure, shortened: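 A synthetic nanobody library was expressed on Saccharomyces cerevisiae BJ5465 by galactose induction for 36–48 hours. The library was stained for 1 hour at 4 °C with 10% biotinylated, detergent-solubilized Sf9 membrane reagent and enriched with streptavidin microbeads before FACS. Low and high (top ~1%) gates were set on anti-HA fluorescence for expression and streptavidin fluorescence for reagent binding, and each polyreactivity label reflects the gate of origin.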

Sequence	polyreactivity (PSR sort gate)
QVQLVESGGGLVQAGGSLRLSCAASGRIFGTYVMGWYRPAPGKERELVARITGGGSTNYADSVKGRFTISRDNAKNTVYLEMNSLKPEDTAVYYCARDYGPYLSPEKPAPMDYWGQGTQVTVSS	low polyreactivity
QVQLVESGGGLVQAGGSLRLSCAASGRIFGVNAMGWYRQAPGKERELVAAIRYRDGSTYYADSVKGRFIISRDNAKNTVYLQMNSLKPEDTAVYYCNALHQRFYAQPGDYWGQGTQVTVSS	high polyreactivity
QVQLVESGGGLVQAGGSLRLSCAASGRIFGVNAMGWYRQAPGKERELVAAISVSGDSTYYADSVKGRFTISRDNAKNTVYLQMNSLKPEDTAVYYCNAGYTFVPADLTDEYYWGQGTQVTVSS	low polyreactivity
QVQLVESGGGLVQAGGSLRLSCAASGRIFGVNAMGWYRQAPGKERELVAVISSGGSTYYADSVKGRFTISRDNAKNTVYLQMNSLKPEDTAVYYCNAVVGRWFPYNLSDYWGQGTQVTVSS	low polyreactivity
QVQLVESGGGLVQAGGSLRLSCAASGRIFGVNAMGWYRQEPGKERELVAAISAGGGNTYYADSVKGRFTISRDNAKNTVYLQMNSLKPEDTAVYYCNVHRSLRMDYWGQGTQVTVSS	high polyreactivity
QVQLVESGGGLVQAGGSLRLSCAASGRIFGVYAMGCYRQATGKERELVATNTSGGSTSYADSVKGRFTISRDNAKNPVYLQMNSLKPEDTAVYYCNAPYSFFWQQMNYWGQGTQETVSS	low polyreactivity
QVQLVESGGGLVQAGGSLRLSCAASGRIFGVYAMGWSRQAPGKERELGAGITDRGGRTYYADSVKGRFTISRDNAKNTVYLQMNSLKPEDTAVYYCNAGSLHRRYYYEGDYWGQGTQVTVSS	high polyreactivity
QVQLVESGGGLVQAGGSLRLSCAASGRIFGVYAMGWYRQAPGKERELVAAISEGGGSTNYADSVKGRFTISRDNAKNTVYLQMNSLKPEDTAGYYCAATYRTGVRRYYSWGQGTQVTVSS	low polyreactivity
QVQLVESGGGLVQAGGSLRLSCAASGRIFGVYAMGWYRQAPGKERELVAAISSTGGSTYYADSVKGRFTISRDNAKNTVYLQMNSLKPEDTAVYYCEYDYWGQGTQVTVSS	low polyreactivity
QVQLVESGGGLVQAGGSLRLSCAASGRIFGVYAMGWYRQAPGKERELVAAIYSGSSTYYADSVKGRFTISRDNAKNTVYLHMNSLKPEDTAVYYCAAVSRDDNYQDYYYWGQGTQVTVSS	low polyreactivity
QVQLVESGGGLVQAGGSLRLSCAASGRIFGVYTMGWYRQAPGKERELVAVISRRGGRTYYADSVKGRFTISRDNAKNTVYLQMNSLKPEDTAVYYCARDSTYSSYTSNDYWGQGTQVTVSS	high polyreactivity
QVQLVESGGGLVQAGGSLRLSCAASGRIFGVYVMGWYRQAPGKEREFVAAITWSGGRTYYADSVKGRFTISRDNAKNTVYLQMNSLKPEDTAVYYCAARRRYEYDYWGQGTQVTVSS	high polyreactivity
QVQLVESGGGLVQAGGSLRLSCAASGRIFGWYAMGWYRQAPGKERELVAAIRWSGGSTYADSVKGRFTISRDNAKNTVYLQMNSLKPEDTAVYYCAATYGSYRGVRYYWGQGTQVTVSS	high polyreactivity
QVQLVESGGGLVQAGGSLRLSCAASGRIFGWYAMGWYRQAPGKERELVAAISRSGGSTYYADSVKGRFTISRDNAKNTVYLQMNSLKPEDTAVCYCAAAFSLGMYWGQGTQVTVSS	high polyreactivity
QVQLVESGGGLVQAGGSLRLSCAASGRIFGWYAMGWYRQAPGKERELVAAISYSGGSTYADSVKGRFTISRDNAKYTVYLQMNSLKPEDTAVYYCAAYSSYYVHRFQHYDYWGQGTQVTVSS	high polyreactivity
QVQLVESGGGLVQAGGSLRLSCAASGRIFGWYAMGWYRQAPGKERELVAAITSSVGRTYYADSVKGRFTISRDNAKNTVYLQMNSLKPEDTAVYYCAKDLYTYYYFEYDYWGQGTQVTVSS	low polyreactivity
QVQLVESGGGLVQAGGSLRLSCAASGRIFGWYAMGWYRQAPGKERELVAGISSSSGSTNYADSVKGRFSISRDNAKNTVYLQMNSLKPEDTAVYYCAADGGGTYYSFYYWGQGTQVTVSS	low polyreactivity
QVQLVESGGGLVQAGGSLRLSCAASGRIFGWYDMGWYRQAPGKERELVAAISYNGARTYYADSVKGRFTISRDNAKNTVYLQMNSLKPEDTAVYYCARRYYSQYDYWGQGTQVTVSS	high polyreactivity
QVQLVESGGGLVQAGGSLRLSCAASGRIFGYAMGWYRQAPGKERELVAAITSSGGRTYYADSVKGRFTISRDNAKNTVYLQMNSLKPEDTAVYYCAAEYLAVSGYWYDYWGQGTQVTVSS	high polyreactivity
QVQLVESGGGLVQAGGSLRLSCAASGRIFGYNAMGRYRQAPGKERELVAAISSGASTIYADSVKGRFTISRDNAKNTVYLQMNSLKPEDTAVYYCAKEKVISPYPYSYYKSDYWGQGTQVTVSS	high polyreactivity
QVQLVESGGGLVQAGGSLRLSCAASGRIFGYNAMGWSRQAPGKERELVAAISYSGGSTYYADSVKGRFTISRDNAKNTVYLQMNSLKPEDTAVYYCAARHPYYYHYDYWGQGTQVTVSS	high polyreactivity

Sequence	polyreactivity (PSR sort gate)
QVQLVESGGGLVQAGGSLRLSCAASGRIFGYYAMGSYRQAPGKERELVAAITRGGSTNYADSVKGRFTISRDNAKNTVYLQMNSLKPEDTAVYYCNARRYRPRSASYDYWGQGTQVTVSS	high polyreactivity
QVQLVESGGGLVQAGGSLRLSCAASGRIFGYYAMGWSRQAPGKEWELVAAISSGGRTYYADSVKGRFTISRDNAKNTVYLQMNSLKPEDTAVYYCAARSRVPPAGPRYDYWGLGTQVTVSS	high polyreactivity
QVQLVESGGGLVQAGGSLRLSCAASGRIFGYYAMGWYRQAPGKERELVAAISDGGSTDYADSVKGRFTISRDNAKNTVYLQMNSLKPEDTAVYYCNADRLYLYNVEYDYWGQGTQVTVSS	low polyreactivity
QVQLVESGGGLVQAGGSLRLSCAASGRIFGYYAMGWYRQAPGKERELVAAISSNGGSTYYADSVKGRFTISRDNAKNTVYLQMNSLKPEDTAVYYCKVYFYSRHYFYRGDYWGQGTQVTVSS	high polyreactivity
QVQLVESGGGLVQAGGSLRLSCAASGRIFGYYAMGWYRQAPGKERELVAAISYTGGSTYYADSVKGRFTISRDNAKNTVYLQMNSLKPEDTAVYYCAAKHYKRLDYWGQGTQVTVSS	high polyreactivity
QVQLVESGGGLVQAGGSLRLSCAASGRIFGYYAMGWYRQAPGKERELVAAITGSGGRTYYADSVKGRFTISRDNAKNTVYLQMNSLKPEDTAVYYCARQQYRWERVYGYGYCGQGTQVTVSS	high polyreactivity
QVQLVESGGGLVQAGGSLRLSCAASGRIFGYYAMGWYRQAPGKERELVAAITRNGGSTYYADSVKGRFTISRDNAKNTVYLQMNSLKPEDTAVYYCAATKGGGRGYWGQGTQLTVSS	high polyreactivity
QVQLVESGGGLVQAGGSLRLSCAASGRIFGYYAMGWYRQAPGKERELVAAITWSGGTYYADSVKGRFTISRDNAKNTVYLQMNSLKPEDTAVYYCAKSVRNGWQSRFGYWGQGTQVTVSS	high polyreactivity
QVQLVESGGGLVQAGGSLRLSCAASGRIFGYYAMGWYRQAPGKERELVADITESGTSTYYADSVKGRFTISRDNAKNTVYLHMNILKPEDTAVYYCAAGYWWRYALYGYWGQGTQVTVSS	low polyreactivity
QVQLVESGGGLVQAGGSLRLSCAASGRIFGYYAMGWYRQAPGKERELVAGINSAGSTNYADSVKGRFTISRDNAKNTVYLQMNSLKPEDTAVYYCAARIRLSLRTGYDYWGQGTQVTVSS	high polyreactivity
QVQLVESGGGLVQAGGSLRLSCAASGRIFGYYAMGWYRQAPGKERELVARISSSGGSTYYADSVKGRFTISRDNAKNTVYLQMNSLKPEDTAVYYCNTASNRYPGWRAEFDYWGQGTQVTVSS	low polyreactivity
QVQLVESGGGLVQAGGSLRLSCAASGRIFGYYAMGWYRQAPGKERELVATITFGGGSTYYADSVKGRFTISRDNAKNTVYLQMNSLKPEDTAVYFCAADSGYLGIYGDEYSWGQGTQVTVSS	low polyreactivity
QVQLVESGGGLVQAGGSLRLSCAASGRIFGYYGMGWYRQAPGKERELVAAITDDGDSTYYADSVKGRFTISRDNAKNTVYLQMNSLKPEDTAVYYCNALGYYVNKMDYWGQGTQVTVSS	low polyreactivity
QVQLVESGGGLVQAGGSLRLSCAASGRIFGYYTMGWYRQAPGKERELVAGITRRGGRTYYADSVKGRFTISRDNAKNTVYLQMNSLKPEDTAVYYCDVRSGVNFYYWGQGTQVTVSS	high polyreactivity
QVQLVESGGGLVQAGGSLRLSCAASGRIFGYYVMGWYRPAPGKERELVAAIRSSADSTYYADSVKGRFTISRDNAKNTVYLQMNSLKPEDTAVYDCAAQSPAYYTKSYWGQGTQVTVSS	low polyreactivity
QVQLVESGGGLVQAGGSLRLSCAASGRIFGYYVMGWYRPAPGKERELVAAISRSGGSTYYADSVKGRFTISRDNAKNTVYLQMNSLKPEDTAVYYCAKRVSTYGFSGYDYWGQGTQVTVSS	high polyreactivity
QVQLVESGGGLVQAGGSLRLSCAASGRIFHANAMGWYRQAPGKERELVAGISRNGGRTYYADSVKGRFTISRDNAKNTVYLQMNSLKPEDTAVYYCAKGHKFRFDYWGQGTQVTVSS	high polyreactivity
QVQLVESGGGLVQAGGSLRLSCAASGRIFHFYAMGWYRQAPGKERELVAAISWSGGSTYYADSVKGRFTISRDNAKNTVYLQMNSLKPEDTAVYYCSKVRGEVAHRKVQYDYWGQGTQVTVSS	low polyreactivity
QVQLVESGGGLVQAGGSLRLSCAASGRIFHFYVMGWYRQAPGKERELVASITRGGNTNYADSVKGRFTISRDNAKNTVYLQMNSLKPEDTAVYYCNGEGYYTRDDSWGQGTQVTVSS	low polyreactivity
QVQLVESGGGLVQAGGSLRLSCAASGRIFHGNAMGWYRQAPGKERELVAAITSGGRTFYADSVKGRFTISRDNAKNTVYLQMNSLKPEDTAVYYCNAPSIAGYAEYNSHDYWGQGTQVTVSS	high polyreactivity
